Blank lines part the entries; values can stand above or below the binder they belong to.
Molecular target: recombinant human alpha-synuclein preformed fibrils (PFF) (human, UniProt P37840 1-140)
Assay: ELISA on coated alpha-synuclein PFF, Fab in serial dilution
Description: A standard ELISA assay was performed using alpha-synuclein PFFs as the coating protein.

binding result: no binding
B1: PMS213 (Fab 6), Fab format (Fab, V domains shown)
VH: QVQLVQSGPGLVKPSETLSLICTVSGGSISSSNYYWGWVRQPPGKGLEWIGTIYYSGTTYYNPSLKSRVTISVDTSKNQFSLELSSVTAADTAVYYCARLGRGSAFDIWGQGTMVTVSS
VL: SVVTQPPSLSAAPGQSITISCSGGGSNIGRNSVSWHRQFPGAAPELLAFDTFRRPSGVPDRFSGSKSGSSATLVITGLQTGDEADYYCGTWDNSLDSGVFGGGTKVTVLR
notes: Fab expressed in E. coli with His and myc tags on the heavy chain

binding result: no binding
B2: PMS209 (Fab 2), Fab format (Fab, V domains shown)
VH: QVQLQESGPGLVKPSETLSLTCTVSGGSISSSSYYWGWIRQPPGKGLEWIGSIYYSGSTYYNPSLKSRVTISVDTSKNQFSLKLSSVTAADTAVYYCARLRRYDSSGFFFDYWGQGTLVTVSS
VL: SVVTQPPSVSAAPGQKVTISCSGSSSNIGNNYVSWHQQLPGTAPKLLIYDNDRRPSGIPDRFSGSKSGTSATLAITGLQTGDEADYYCGTWDSSLSGGVFGGGTKVTVLS
